{"source": "paper PMC6969876", "about": "“NADPH biosensor-based identification of an alcohol dehydrogenase variant with improved catalytic properties caused by a single charge reversal at the protein surface” (AMB Express, 2020)", "target": "the molecule itself", "test": "SEC; Superdex 200 increase 10/300 GL, buffer A (50 mM triethanolamine hydrochloride, 1 mM MgCl2, pH 7.0), 0.75 mL/min; apparent native mass from a calibration curve with carbonic anhydrase, bovine serum albumin, alcohol dehydrogenase and beta-amylase; affinity-purified protein loaded", "data": [{"protein": "NADPH-dependent alcohol dehydrogenase of Lactobacillus brevis, wild type (LbADH^WT), with N-terminal Strep-tag II (enzyme, UniProt Q84EX5 1-252, looked up, NADPH-dependent (R-specific) alcohol dehydrogenase of Lactobacillus brevis; 251 amino acid residues and 26.6 kDa per subunit as printed; calculated mass of the monomer with StrepTag-II 28.2 kDa; The plasmid pASK-IBA5plus-Lbadh^WT was a gift (Prof. W. Kroutil); not shown: Strep-tag II, N-terminal, kept) MSNRLDGKVAIITGGTLGIGLAIATKFVEEGAKVMITGRHSDVGEKAAKSVGTPDQIQFFQHDSSDEDGWTKLFDATEKAFGPVSTLVNNAGIAVNKSVEETTTAEWRKLLAVNLDGVFFGTRLGIQRMKNKGLGASIINMSSIEGFVGDPSLGAYNASKGAVRIMSKSAALDCALKDYDVRVNTVHPGYIKTPLVDDLPGAEEAMSQRTKTPMGHIGEPNDIAYICVYLASNESKFATGSEFVVDGGYTAQ", "values": [{"measurement": "stoichiometry N", "value": 4}]}]}
